Measured values taken from paper PMC11544209.

Target: T1, PsCas9 WT (UniProt PDB:8UMF_1 1-1462)
T1 sequence: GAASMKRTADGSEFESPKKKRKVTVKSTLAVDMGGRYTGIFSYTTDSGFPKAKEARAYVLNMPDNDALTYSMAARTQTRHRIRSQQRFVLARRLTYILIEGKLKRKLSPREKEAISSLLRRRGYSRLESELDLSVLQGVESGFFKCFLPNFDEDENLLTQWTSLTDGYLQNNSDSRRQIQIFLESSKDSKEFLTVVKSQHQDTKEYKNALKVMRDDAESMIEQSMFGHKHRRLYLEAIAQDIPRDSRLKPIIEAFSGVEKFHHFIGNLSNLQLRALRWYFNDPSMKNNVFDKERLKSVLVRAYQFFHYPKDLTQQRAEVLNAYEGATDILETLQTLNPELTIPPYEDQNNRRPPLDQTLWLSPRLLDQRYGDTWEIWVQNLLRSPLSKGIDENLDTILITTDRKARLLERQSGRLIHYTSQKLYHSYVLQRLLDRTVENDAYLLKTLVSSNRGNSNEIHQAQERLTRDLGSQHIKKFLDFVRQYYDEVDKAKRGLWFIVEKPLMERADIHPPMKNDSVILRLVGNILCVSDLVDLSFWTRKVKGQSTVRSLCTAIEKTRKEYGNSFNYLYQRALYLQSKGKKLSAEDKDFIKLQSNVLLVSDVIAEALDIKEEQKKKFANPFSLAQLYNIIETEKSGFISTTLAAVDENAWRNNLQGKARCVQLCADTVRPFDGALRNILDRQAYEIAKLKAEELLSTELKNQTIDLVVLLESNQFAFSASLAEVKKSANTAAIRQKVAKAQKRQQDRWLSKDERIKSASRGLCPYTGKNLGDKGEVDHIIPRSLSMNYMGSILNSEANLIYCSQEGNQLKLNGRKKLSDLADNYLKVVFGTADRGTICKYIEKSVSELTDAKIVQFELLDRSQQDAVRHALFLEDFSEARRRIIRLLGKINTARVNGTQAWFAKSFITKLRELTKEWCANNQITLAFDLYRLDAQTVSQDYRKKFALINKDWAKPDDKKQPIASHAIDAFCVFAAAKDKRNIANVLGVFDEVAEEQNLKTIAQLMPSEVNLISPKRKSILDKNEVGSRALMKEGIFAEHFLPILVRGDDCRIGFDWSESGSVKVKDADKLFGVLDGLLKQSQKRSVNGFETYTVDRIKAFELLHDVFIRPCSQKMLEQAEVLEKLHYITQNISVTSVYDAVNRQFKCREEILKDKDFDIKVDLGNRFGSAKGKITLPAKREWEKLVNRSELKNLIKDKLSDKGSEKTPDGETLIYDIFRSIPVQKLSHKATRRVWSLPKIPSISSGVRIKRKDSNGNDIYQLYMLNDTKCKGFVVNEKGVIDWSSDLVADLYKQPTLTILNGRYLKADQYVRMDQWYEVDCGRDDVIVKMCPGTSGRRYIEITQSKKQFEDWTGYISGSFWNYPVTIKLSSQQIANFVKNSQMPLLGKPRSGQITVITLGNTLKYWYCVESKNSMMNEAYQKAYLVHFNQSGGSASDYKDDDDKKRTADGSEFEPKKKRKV
Experiment: fluorescence polarization

B1: EMX1a 38 bp target + PsCas9 original EMX1a sgRNA (mixed)
DNA 1: TGTATGTCACCTCCAATGACTAGGGTGGTACACAAACA
DNA 2: TGTTTGTGTACCACCCTAGTCATTGGAGGTGACATACA
- Kd: ~0.112 µM
